Values of other authors in paper PMC3749136.

Molecular target: EGF-R pY1092 peptide pY1092 peptide (Homo sapiens) (UniProt P00533)
Conditions: cited from earlier work

SOCS4 SH2, sequence (Q8WXH5 283-384): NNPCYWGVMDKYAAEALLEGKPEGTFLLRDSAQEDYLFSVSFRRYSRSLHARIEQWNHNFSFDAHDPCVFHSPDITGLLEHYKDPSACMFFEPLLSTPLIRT

Question: With SOCS4 SH2 (from UniProt Q8WXH5) as the substance, how does the Kd read?
Answer: Its Kd is 500 nM.
